Laboratory results reported in article PMC3082911 (Nucleic Acids Research, 2010).

T1: myc-tagged PSF (full-length) (UniProt Q8VIJ6 1-699)
T1 sequence: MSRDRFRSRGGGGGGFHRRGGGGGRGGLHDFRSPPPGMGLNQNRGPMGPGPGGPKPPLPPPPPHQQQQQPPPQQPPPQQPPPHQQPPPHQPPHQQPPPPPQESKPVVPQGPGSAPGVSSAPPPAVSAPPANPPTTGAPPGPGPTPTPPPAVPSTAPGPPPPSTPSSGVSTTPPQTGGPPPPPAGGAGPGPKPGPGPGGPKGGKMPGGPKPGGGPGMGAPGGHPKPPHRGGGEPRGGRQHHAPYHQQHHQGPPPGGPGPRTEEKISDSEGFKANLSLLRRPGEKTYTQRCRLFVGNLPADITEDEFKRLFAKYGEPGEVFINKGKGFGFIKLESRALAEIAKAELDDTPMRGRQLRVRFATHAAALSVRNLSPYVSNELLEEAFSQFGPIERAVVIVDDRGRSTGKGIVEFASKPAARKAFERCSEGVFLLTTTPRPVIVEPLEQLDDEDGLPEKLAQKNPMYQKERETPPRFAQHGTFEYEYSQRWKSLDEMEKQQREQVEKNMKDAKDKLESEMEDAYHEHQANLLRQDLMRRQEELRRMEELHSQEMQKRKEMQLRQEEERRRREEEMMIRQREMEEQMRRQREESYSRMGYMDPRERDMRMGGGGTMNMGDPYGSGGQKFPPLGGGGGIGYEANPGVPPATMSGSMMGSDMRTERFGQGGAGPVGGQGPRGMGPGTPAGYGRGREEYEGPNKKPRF

B1: myc–Fox-3-L (natural protein)
chain: MAQPYPPAQYPPPPQNGIPAEYAPPPPHPTQDYSGQTPVPPEHGMTLYTPAQTHPEQPGTEASTQPIAGTQTVPQADEAAQTDNQQLHPSDPTEKQQPKRLHVSNIPFRFRDPDLRQMFGQFGKILDVEIIFNERGSKGFGFVTFETSSDADRAREKLNGTIVEGRKIEVNNATARVMTNKKPGNPYANGWKLNPVVGTVYGPEFYAVTSFPYPTTGTAVAYRGAHLRGRGRAVYNTFRAAPPPPPIPTYGAALEQTLVKMPVPWAGLAPCPLPPQQTPEPAYPTSPAFPPLSCPFASRVVYQDGFYGAEIYGGYAAYRYAQPAAATAAAYSDSYGRVYAAADPYHHTIGPTATYSIGTMASLCRGGYSRFTPY

Tests used:
[1] = target: myc-tagged PSF (full-length) (UniProt Q8VIJ6); assay: co-IP
[2] = target: T1, myc-tagged PSF (full-length); assay: co-IP

Row | Molecule | fold more efficiently pulled down by PSF than Fox-1 [1] [fold] | fold more efficiently pulled down by PSF than Fox-2 [1] [fold] | fold more efficiently pulled down by PSF than Fox-1 [2] [fold] | fold more efficiently pulled down by PSF than Fox-2 [2] [fold]
1 | myc-tagged Fox-3-S (from UniProt Q8BIF2-5 1-327) (natural protein) | 7 | 2.7 |  | 
2 | B1 |  |  | 7 | 2.7
